# Laboratory results published in the supplement of paper PMC12764529.
# ± gives the half width of the 95% confidence interval.
# Legend:
# [1] = folding stability dG unfold from trypsin proteolysis; higher = more stable
# Summary of the method: (§1)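 Digests were run with trypsin and chymotrypsin at 11 concentrations in threefold dilutions, plus a no-protease condition, on designed mini-proteins in a PA-tagged cDNA display construct. The mini-proteins were under 80 residues, had no cysteine, and were kept only when AlphaFold2 dimer inter-PAE was above 15. After sequencing, Bayesian fitting of the counts gave K50, from which unfolding free energy was derived against a sequence-predicted unfolded-state K50 and a shared folded-state K50, per protease or combined.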
# [2] = folding stability dG unfold (combined trypsin and chymotrypsin); higher = more stable
# Summary of the method: as §1
# [3] = folding stability dG unfold from chymotrypsin proteolysis; higher = more stable
# Summary of the method: as §1
Sequence,folding stability dG unfold [1],folding stability dG unfold [2],folding stability dG unfold [3]
SAGGKKKVIEIKIEIKVPKEELKNMTKEEIAELLKKELEKKGIKIKKIEIVEIEIDGDTVTITIRIELSAGG [r13_432_TrROS_Hall],2.18 ± 0.15 kcal/mol,2.72 ± 0.3 kcal/mol,2.92 ± 0.2 kcal/mol
SAGGSAGGSAKPQKVELELFPNGELIIRLPETGARIRLKVEVFKDASGNPFFKLEIVDIDPSAGGSAGGSAG [r3_76_TrMRF],2.48 ± 0.14 kcal/mol,2.6 ± 0.16 kcal/mol,2.66 ± 0.058 kcal/mol
MKKVKVTITITVPEEDKEKVKELIEKLKEAVPNVKVTSVEFDEKTGKITIVVEMTEEELEELKKALKEALES [r1_443_TrROS_Hall],2.78 ± 0.11 kcal/mol,2.06 ± 0.082 kcal/mol,1.47 ± 0.036 kcal/mol
SAGGSAGGSAGLPPGDYRLFPFTVTITIPPIKVKDPNGDEHEIDNLEISITIYFFVPAGDSAGGSAGGSAGG [r11_907_TrROS],3.43 ± 0.15 kcal/mol,4.03 ± 0.34 kcal/mol,4.58 ± 0.12 kcal/mol
SAGGSAGGSAGVVRTDDGREVTVRRTVRVEVRLEITITASEEDREKAAAALERLLRELGLSAGGSAGGSAGG [r17_501_TrROS_Hall],2.68 ± 0.24 kcal/mol,2.86 ± 0.16 kcal/mol,3.04 ± 0.086 kcal/mol
SAGGSAGGSAGSLTFQLPNGTEITVTEITLEIKLPNGDVILIKITVDPEPPVTTEVTFVNSAGGSAGGSAGG [r11_804_JUSTAS],1.8 ± 0.066 kcal/mol,1.64 ± 0.13 kcal/mol,1.37 ± 0.09 kcal/mol
SAGAKVEIEFEGNKVTAKIEFGEGTVTVEGEVKLLPDGSALFKPKIYKDGKKIGEFTVLLDLPEGAEVLSAG [r5_221_TrMRF],1.37 ± 0.062 kcal/mol,1.84 ± 0.16 kcal/mol,1.95 ± 0.057 kcal/mol
SAGGSAKPVIVKIHFPNMKPEKILELAKEFGAVPLKMDPNKGVAIVLATEEKVEEIAAKGNFKIEASAGGSA [r15_731_TrMRF],0.736 ± 0.043 kcal/mol,0.515 ± 0.26 kcal/mol,0.205 ± 0.39 kcal/mol
SAGGSKKVKIKITKIEIFPNGTIKVTVKNEDGSEVTITITKNKDGKYKIKIKNKKTKKIFEFEIPLSAGGSA [r2_361_TrROS_Hall],2.22 ± 0.089 kcal/mol,2.8 ± 0.22 kcal/mol,3.1 ± 0.06 kcal/mol
SAGGSAGGKITINGKEYEIVEVKYDKETNTLHFLIKNKDGTLLKISISPNGKIEIKEVPAEELLSAGGSAGG [r6_699_TrROS_Hall],3.41 ± 0.23 kcal/mol,3.78 ± 0.23 kcal/mol,3.74 ± 0.12 kcal/mol
SATKTITIELPVDVPVEVLKEFFEALGFTEMEFYETEDPRTLVVRFTVPGDPVTVIVIVRPLPVPPDEPLSA [r9_1090_TrMRF],3.29 ± 0.16 kcal/mol,3.55 ± 0.12 kcal/mol,3.57 ± 0.063 kcal/mol
SAGGSSVTTTVSEETLPDGLRLLTTTTTTTTVPGKPDLRITTVTTTALDPVTGETTAVGTSTTVVAPSAGGS [r8_65_JUSTAS],0.311 ± 0.038 kcal/mol,0.63 ± 0.086 kcal/mol,0.796 ± 0.027 kcal/mol
SAGMKPSPEGKTIITIDTSTGKVDVVFPDGKEFTLPFDSSSIEEIIKTIKEKLGYPPEVPFNIDEIEIASAG [r5_923_JUSTAS],2.41 ± 0.1 kcal/mol,2.31 ± 0.079 kcal/mol,2.239 ± 0.019 kcal/mol
SAGPKVKLIKAEFFPDGRLVVYAEVESSNGEPAFAVGVFDPRNPNKAHVKVYNPSTGKVSEFEVTVTPGSAG [r5_345_TrMRF],2.57 ± 0.054 kcal/mol,3 ± 0.035 kcal/mol,3.24 ± 0.042 kcal/mol
SSWEKLSTLTLPSTGLTVTFYYDPSTNSTAVKVTDGAGPELSEKVLSDDETFTLPDGVSIKLPKGAEPASSA [r9_340_JUSTAS],0.334 ± 0.021 kcal/mol,1.02 ± 0.081 kcal/mol,1.45 ± 0.077 kcal/mol
SAGGPSVDIDPRLNEDGTPYVLATLHIVPVHSDGSSSSADIPVVFDSLDDLLAFVKAISPGSAKVSLSAGGS [r16_652_TrMRF],0.42 ± 0.067 kcal/mol,0.959 ± 0.058 kcal/mol,1.27 ± 0.083 kcal/mol
SAGGMAVPVKVRDPVNGNWKTLDNIESIDEVVEVDPTDGSRSYFVKLKGSGKWYVVDDPEAVEAAKGSAGGS [r8_206_TrMRF],1.17 ± 0.064 kcal/mol,1.12 ± 0.13 kcal/mol,1.08 ± 0.14 kcal/mol
SAGGSAGGSAGGKPKIEIELTFIDEDGYAYRLRAEIEIDEDGNVHIEVEIEKVPLPEGLSAGGSAGGSAGGS [r10_563_TrROS_Hall],2.9 ± 0.14 kcal/mol,3.18 ± 0.21 kcal/mol,3.28 ± 0.13 kcal/mol
SAGGSAGGSAMIETTVSFDPSTGTVTTTTTYTDPNGGYTKSSTTVTPVPTPAPPPPAAPNRVSAGGSAGGSA [r18_361_JUSTAS],0.409 ± 0.029 kcal/mol,0.551 ± 0.094 kcal/mol,0.582 ± 0.067 kcal/mol
SEPPPKIKIKEVEYNPDDGYLTIPVTHPNGPKMRVKFRPPDGKTQEIPPNSPTITIPLPPNMRLTEIEVDSA [r9_113_TrROS],3.51 ± 0.31 kcal/mol,3.22 ± 0.33 kcal/mol,2.79 ± 0.29 kcal/mol
SAGGMVFKTKDGYLVRIEVFNKETGEKTEILVPEENIEELLKALESKPGVTEVKVEIYKLKDGKPEKLSAGG [r13_914_TrROS_Hall],0.862 ± 0.026 kcal/mol,1.21 ± 0.095 kcal/mol,1.38 ± 0.09 kcal/mol

Sequence,folding stability dG unfold [1],folding stability dG unfold [2],folding stability dG unfold [3]
SAGGSAGGSASVVADENKIVVTFPNGKVVELDLSDPKKAKEKLLALKPLDIPPITLELVPPASAGGSAGGSA [r18_68_JUSTAS],-0.139 ± 0.071 kcal/mol,0.572 ± 0.12 kcal/mol,0.842 ± 0.041 kcal/mol
SAGGSAGGSKLGVFEVGGKRYAVKVTDKNGKELTLAIPPELLKKLPKNLKVEVKEVKPGEPIPSAGGSAGGS [r12_419_TrMRF],0.218 ± 0.16 kcal/mol,0.635 ± 0.15 kcal/mol,0.738 ± 0.23 kcal/mol
SAGGGSMFSTIYDPNSNNSIEAPLLSIREEDGRPTIEYQLPDGTRVTRPLSELGAFTLTGGAGSLTLPSAGG [r13_211_JUSTAS],0.83 ± 0.052 kcal/mol,0.774 ± 0.075 kcal/mol,0.552 ± 0.14 kcal/mol
MPAISIEEIIKLAKEAGKPAPPTVIVFNYKFGNTTRTLPVPLSEPVSLAEVEAAIKAADPNVTEITLTFVPS [r1_135_JUSTAS],0.551 ± 0.088 kcal/mol,1.07 ± 0.16 kcal/mol,1.36 ± 0.12 kcal/mol
MRRFEFPETGLVVPVVPSPDGRYRVRIYRPGGELVLEVELPDLPIPEGSDAEIRIPLKDLPPDLVTFVEPES [r1_263_TrMRF],0.819 ± 0.054 kcal/mol,1.21 ± 0.11 kcal/mol,1.46 ± 0.09 kcal/mol
SAMERVEIVVKVKVRPDMSLEELKERVERELRRLLEERGIELPEGAKITVEIVEETEDYVVVKVTIELPSAG [r14_735_TrROS_Hall],4.53 ± 0.24 kcal/mol,4.4 ± 0.32 kcal/mol,2.91 ± 0.14 kcal/mol
KIEIKVHPDGTLLIKAPLELIDLLIKLLKEKGYDAKILKIDPENGYVLIPVKPKPPPIPKPTPEELLKALFS [r1_78_TrMRF],2.29 ± 0.096 kcal/mol,3.35 ± 0.2 kcal/mol,3.78 ± 0.1 kcal/mol
SAGGSAGGSAGGMTTVTLTLTTELEVKDPEGKLHRETVTVTVTVPVPPSTLTDTTDLVSSAGGSAGGSAGGS [r10_168_JUSTAS],1.82 ± 0.1 kcal/mol,1.91 ± 0.17 kcal/mol,2.12 ± 0.054 kcal/mol
SAGSNKKITAEELAKLLEEKFKEKFPDAEIKVHAHAEPRPDDKLIIHVHFEIYRKKPKIGEFDVVIEFESAG [r5_696_TrMRF],1.55 ± 0.085 kcal/mol,2.38 ± 0.13 kcal/mol,2.76 ± 0.043 kcal/mol
SMEEVKEALRKAGIDVPVTKIETEKLPDGSYKVTLTVGDKKVLTVYVPPEPPEPPVFYRTPPNGSREPVLSA [r9_442_JUSTAS],0.291 ± 0.12 kcal/mol,0.504 ± 0.18 kcal/mol,0.528 ± 0.27 kcal/mol
SAGGSAGGSKMLLVKVYVPEFDTVVVFEAPRDITIEEIEERLREAGFSVARIEVVEFDLPEGGSAGGSAGGS [r12_955_TrMRF],3.02 ± 0.049 kcal/mol,3.55 ± 0.071 kcal/mol,3.766 ± 0.022 kcal/mol
SAGGSLIEKIAKEAGIKVEISKEETNGSPVLTITITKGDKNIVFKDDGKDPEKLVKELAKKIGIKPISAGGS [r8_226_JUSTAS],0.499 ± 0.043 kcal/mol,0.422 ± 0.19 kcal/mol,0.414 ± 0.086 kcal/mol
SAGGSAGGSVKITTEPDPNGYYRVTVTIRLNDKPIPVDMPFPPGKTPDQVKEKARDIAKELLKSAGGSAGGS [r12_69_TrROS],0.249 ± 0.089 kcal/mol,0.455 ± 0.091 kcal/mol,0.546 ± 0.13 kcal/mol
SAGGSAGGVTINFPDGVTIMVDPGTGKIYIMNPNGYIFKFTIERKPNEWKLKIEPIKPIPPDDFSAGGSAGG [r6_324_TrROS],2.55 ± 0.085 kcal/mol,3.16 ± 0.19 kcal/mol,3.7 ± 0.091 kcal/mol
SAGGSAGGSAPDNVEIEVYELPAGMYRVKIWPPGGNRHEFNFPPGEPKKIKIPPGVSIEIWPFSAGGSAGGS [r12_517_TrROS],0.462 ± 0.15 kcal/mol,0.743 ± 0.22 kcal/mol,0.763 ± 0.29 kcal/mol
SAMRPGDPWKPVEERKIPIRNPNNGKEIEIEVYRFKDDGMYMVSIHFPDGKSIQFMVPPGDVEEIIEQISAG [r14_240_TrROS],1.29 ± 0.037 kcal/mol,2.8 ± 0.058 kcal/mol,3.171 ± 0.016 kcal/mol
SAGGMKVEVEKDPIKDGTTITVETGLDPEEVRAFLEELLGPPLEDVTFETAPDGTLVVTARVPPDVGSAGGS [r16_605_JUSTAS],0.627 ± 0.054 kcal/mol,0.816 ± 0.12 kcal/mol,0.564 ± 0.048 kcal/mol
SAGGNRKFTLIIRIKAPPGDPDKMKEEVKEIANEIADIFRDHGVKVKVKVEYDPDNGEIYVQVEFEVPSAGG [r13_755_TrROS],3.89 ± 0.29 kcal/mol,4.78 ± 0.29 kcal/mol,5.12 ± 0.31 kcal/mol
SNPISAVVPSPGGRYVLVVEYKDGSVEVYEFEGLSTAEEAKERALALLKESTEGEPREITRVVVLPAPPGSA [r9_1135_TrMRF],4.3 ± 0.17 kcal/mol,4.33 ± 0.11 kcal/mol,4.3 ± 0.051 kcal/mol
SAGGSAGLTLTFGDKEITLTPNPDTDTFTGTYPDGKPFTFKLTDDELYITYPDGTKEKIPLKDIKNSAGGSA [r15_448_TrMRF],1.58 ± 0.066 kcal/mol,1.54 ± 0.21 kcal/mol,1.42 ± 0.17 kcal/mol
SAGGSAPDWKIVDIEPTDNSITITVEAPPGVRVMIFNPGNGKVQHRPFPPGDTITIPPRMYIMVWVSAGGSA [r15_418_TrROS],2.43 ± 0.032 kcal/mol,2.84 ± 0.081 kcal/mol,3.121 ± 0.03 kcal/mol
